Data from paper PMC11331516.

Legend:
Bovine κ-casein (bovine) [1] = assay: PFG NMR diffusion; κ-casein 20% (w/v) in 100% D2O, 298 K; MODSTE pulse sequence, td 50-800 ms; gel-like network
Bovine κ-casein (bovine) [2] = assay: PFG NMR diffusion; κ-casein 0.1 to 10% (w/v) in 100% D2O, pH 7.0, 298 K; STE and MODSTE pulse sequences, td 50-800 ms; fresh samples; below the threshold of gel formation
[3] = target: Bovine κ-casein labelled with EDANS-C2-maleimide (donor) or DABCYL-C2-maleimide (acceptor) (bovine); assay: FRET or BRET; as the FRET titration but with 5 mM sodium phosphate buffer added; data not shown
[4] = target: Bovine κ-casein labelled with EDANS-C2-maleimide (donor) or DABCYL-C2-maleimide (acceptor) (bovine); assay: FRET or BRET; time-resolved FRET titration; donor (EDANS) κ-casein constant at 0.01% (5 μM), acceptor (DABCYL) κ-casein 0.01-0.38% (5-200 μM); in H2O, 293 K; indefinite isodesmic association, adding a monomer to an associate

Substance	lifetime of molecules within the gel network (20% solution) (Bovine κ-casein (bovine) [1]) [s]	percent of molecules in the gel network (20% solution) (Bovine κ-casein (bovine) [1]) [%]	fraction of molecules within the associate, pmin(0) (0.5% solution) (Bovine κ-casein (bovine) [2])	lifetime of molecules within the associate (0.5% solution) (Bovine κ-casein (bovine) [2]) [s]	stoichiometry N (Bovine κ-casein (bovine) [2]) [molecules]	fold decrease of the equilibrium association constant with 5 mM sodium phosphate buffer against the aqueous solution [3] [fold]	Kd [4] [µM]
Bovine κ-casein (natural protein)	0.98	34	0.23	0.53	< 31		
Bovine κ-casein labelled with EDANS-C2-maleimide (donor) or DABCYL-C2-maleimide (acceptor) (natural protein)						3	9.5
